Experimental findings from publication PMC8528238 (Nature, 2021) are described below.

The experiment concerns the target SARS-CoV-2 D614G stabilized spike ectodomain (SARS-CoV-2, D614G, UniProt A0A6H1PJZ3, D614G). The experiment can be described thus: ELISA.

B1: DH1041, SARS-CoV-2-specific ACE2-binding site-focused RBD neutralizing antibody (antibody, V domains shown)
VH: EVQLVESGGGLVQPGGSLRLSCAASGVTFSSYWMSWVRQAPGKGLEWVANIRQDGSEKYSVDSVKGRFTISRDNAKNSLYLQMNSLRAEDTAVYYCARARRADNSGYYGFHFDCWGQGTLVTVSS
VL: QSVLTQPPSVSGAPGQRVTISCTGSSSNIGAGYDVHWYQQLPGTAPKLLIYGNNNRPSGVPDRFSDSKSGTSASLAITRLQAEDEADYYCQSYDSSLSGWVFGGGTKLTVL
With B1, the binding result is recorded as “binds”.

B2: DH1047, cross-neutralizing RBD antibody (antibody, V domains shown)
VH: QVQLVQSGAEVKKPGASVQVSCQASANTFTNHYIHWVRQAPGQGLEWMGIIYPTGGNTIYAQGFQGRVTMTRDTSLNTIYLELSSLRSEDTAVYYCARDVRVDDSWSGYDLLSGGTYFDYWGQGTLVTVSS
VL: not shown
As to B2, the binding result is given as “binds”.
